First the molecules themselves.
B1: HDV Ribozyme (parent)
chain: GGCCGGCAUGGUCCCAGCCUCCUCGCUGGCGCCGGCUGGGCAACAUUCCGAGGGGACCGUCCCCUCGGUAAUGGCGAAUGGGACCCA

The data set covers variants of B1. Nature of the data set: self-cleavage, relative activity (ratio to wild type); higher = more cleavage; co-transcriptional.
For the variant GGCCGGCAUGGUCCCAGCCUCCUCGCUGGCGCCGGCUGGUCAGCAUUCCGAGGGGACCGUCCCCUCGGUAAUGGCGAAUGGGACCCA [G40U A43G], the self-cleavage came to 0.54.
Consider GGCCGGCAUGGUCCCAGCCUCCUCGCUGGCGCCGGCUGGUCAACAUUCCGAGGGGACCGUCCUCUCGGUAAUGGCGAAUGGGACCCA [G40U C63U], for which the self-cleavage turned out to be 0.866.
For GGCCGGCAUGGUCCCAGCCUCCUCGCUGGCGCCGGCUGGUCAACAUUCCGAGGGGACCGUCCGCUCGGUAAUGGCGAAUGGGACCCA [G40U C63G], the self-cleavage turned out to be 0.348.
Under GGCCGGCAUGGUCCCAGCCUCCUCGCUGGCGCCGGCUGGUCAACAUUCCGAGGGGGCCGUCCCCUCGGUAAUGGCGAAUGGGACCCA [G40U A56G] stands 0.677; under GGCCGGCAUGGUCCCAGCCUCCUCGCUGGCGCCGGCUGGUCAACAUUCCGAGGGGUCCGUCCCCUCGGUAAUGGCGAAUGGGACCCA [G40U A56U], 0.801; under GGCCGGCAUGGUCCCAGCCUCCUCGCUGGCGCCGGCUGGUCAACAUUCCGAGGAGACCGUCCCCUCGGUAAUGGCGAAUGGGACCCA [G40U G54A], 0.694.
Regarding GGCCGGCAUGGUCCCAGCCUCCUCGCUGGCGCCGGCUGGCCAACAUUCCGAGGGGACCGUCCCUUCGGUAAUGGCGAAUGGGACCCA [G40C C64U], the self-cleavage turned out to be 0.223.
As to GGCCGGCAUGGUCCCAGCCUCCUCGCUGGCGCCGGCUGGUCAACAUUCCGAGGGGACCGUCCCCUCGGUAAUGGCGAAUGCGACCCA [G40U G81C], the self-cleavage turned out to be 0.149.
Consider GGCCGGCAUGGUCCCAGCCUCCUCGCUGGCGCCGGCUGGUCAACAUUCCGAGGGGACCGUCCCCUCGGUAAUGGCGAAUGGGACGCA [G40U C85G], for which the self-cleavage was found to be 0.612.
As to GGCCGGCAUGGUCCCAGCCUCCUCGCUGGCGCCGGCUGGUCAACAUUCCGAGGGGACCGUCCCCUCGGUACUGGCGAAUGGGACCCA [G40U A71C], the self-cleavage worked out at 0.327.
Under GGCCGGCAUGGUCCCAGCCUCCUCGCUGGCGCCGGCUGGCCAACAUUCCGAGGGGACCGUCCCCCCGGUAAUGGCGAAUGGGACCCA [G40C U65C] stands 0.155; under GGCCGGCAUGGUCCCAGCCUCCUCGCUGGCGCCGGCUGGUCAACAUUCCUAGGGGACCGUCCCCUCGGUAAUGGCGAAUGGGACCCA [G40U G50U], 1.01.
Take GGCCGGCAUGGUCCCAGCCUCCUCGCUGGCGCCGGCUGGUCAACAUUCCGAGGGGACCGUCGCCUCGGUAAUGGCGAAUGGGACCCA [G40U C62G]: the self-cleavage worked out at 0.467.
On to GGCCGGCAUGGUCCCAGCCUCCUCGCUGGCGCCGGCUGGCCAACAUUCCGAGGGGACCGUCCCCUCGGGAAUGGCGAAUGGGACCCA [G40C U69G], for which the self-cleavage amounted to 0.361.
With GGCCGGCAUGGUCCCAGCCUCCUCGCUGGCGCCGGCUGGUCAACAUACCGAGGGGACCGUCCCCUCGGUAAUGGCGAAUGGGACCCA [G40U U47A], the self-cleavage came to 0.427.
Under GGCCGGCAUGGUCCCAGCCUCCUCGCUGGCGCCGGCUGGCUAACAUUCCGAGGGGACCGUCCCCUCGGUAAUGGCGAAUGGGACCCA [G40C C41U] stands 0.629; under GGCCGGCAUGGUCCCAGCCUCCUCGCUGGCGCCGGCUGGCCAACAUCCCGAGGGGACCGUCCCCUCGGUAAUGGCGAAUGGGACCCA [G40C U47C], 0.243.
As for GGCCGGCAUGGUCCCAGCCUCCUCGCUGGCGCCGGCUGGUCAACAUUCCGAGGGGACCGUCCCCUCGGUAAUGGCGAAUGGGACCCU [G40U A87U], the figure is 0.667; as for GGCCGGCAUGGUCCCAGCCUCCUCGCUGGCGCCGGCUGGGAAACAUUCCGAGGGGACCGUCCCCUCGGUACUGGCGAAUGGGACCCA [C41A A71C], 0.499; as for GGCCGGCAUGGUCCCAGCCUCCUCGCUGGCGCCGGCUGGUCAAGAUUCCGAGGGGACCGUCCCCUCGGUAAUGGCGAAUGGGACCCA [G40U C44G], 0.194.
For GGCCGGCAUGGUCCCAGCCUCCUCGCUGGCGCCGGCUGGUCAACAGUCCGAGGGGACCGUCCCCUCGGUAAUGGCGAAUGGGACCCA [G40U U46G], the self-cleavage amounted to 0.136.
Under GGCCGGCAUGGUCCCAGCCUCCUCGCUGGCGCCGGCUGGUCGACAUUCCGAGGGGACCGUCCCCUCGGUAAUGGCGAAUGGGACCCA [G40U A42G] stands 0.306; under GGCCGGCAUGGUCCCAGCCUCCUCGCUGGCGCCGGCUGGGAAACAUUCCGAGGGGACCGUCCCCUCGGUAAUGGCGCAUGGGACCCA [C41A A77C], 0.172; under GGCCGGCAUGGUCCCAGCCUCCUCGCUGGCGCCGGCUGGGAAACAUUCCGAGGGGACCGUCCCCUCGGUAAUGGCGUAUGGGACCCA [C41A A77U], 0.332.
Under GGCCGGCAUGGUCCCAGCCUCCUCGCUGGCGCCGGCUGGGAAACAUUCCGAGGGGACCGUCCCCUCGGUAAUGGCGGAUGGGACCCA [C41A A77G] stands 0.628; under GGCCGGCAUGGUCCCAGCCUCCUCGCUGGCGCCGGCUGGUCAACAUUCCGAGGGGACCGUCCCCUCGGGAAUGGCGAAUGGGACCCA [G40U U69G], 0.727.
As for GGCCGGCAUGGUCCCAGCCUCCUCGCUGGCGCCGGCUGGCCAACAUUCCGAGGGGACCGUCCCCUCGGUAAUGGCAAAUGGGACCCA [G40C G76A], the figure is 0.163; as for GGCCGGCAUGGUCCCAGCCUCCUCGCUGGCGCCGGCUGGUCAACAUUCCGAGGGGACCGUCCCCUCGGUAAUGGCGAACGGGACCCA [G40U U79C], 0.185; as for GGCCGGCAUGGUCCCAGCCUCCUCGCUGGCGCCGGCUGGUCAACAUUCCGAGGGGACCGUCCCCUCGGUAAUGGCGAAGGGGACCCA [G40U U79G], 0.243.
Turning to GGCCGGCAUGGUCCCAGCCUCCUCGCUGGCGCCGGCUGGUCAACAUUCCGAGGGGACCGUCCCCUCGGUCAUGGCGAAUGGGACCCA [G40U A70C], the self-cleavage was 0.391.
As for GGCCGGCAUGGUCCCAGCCUCCUCGCUGGCGCCGGCUGGUAAACAUUCCGAGGGGACCGUCCCCUCGGUAAUGGCGAAUGGGACCCA [G40U C41A], the figure is 0.843; as for GGCCGGCAUGGUCCCAGCCUCCUCGCUGGCGCCGGCUGGUCAACAUUCCGAGGGGACCGUCCCCACGGUAAUGGCGAAUGGGACCCA [G40U U65A], 0.808.

For the origin of these results see the RNAGym collection of RNA variant scans (doi:10.7554/elife.80360).
